Measured values taken from patent US10919943B2, “Mutant proteins enabling agrochemical control of plant gene expression” (The Regents of the University of California, priority 2016, dated 2021).
Where a chain is given by its changes, count along the chain named. In names and notes the source's numbering stands.

B1: G86F: PYR1 mutant (protein, UniProt O49686 1-191, looked up, variant G86F)
Abscisic acid receptor PYR1: MPSELTPEERSELKNSIAEFHTYQLDPGSCSSLHAQRIHAPPELVWSIVRRFDKPQTYKHFIKSCSVEQNFEMRVGCTRDVIVISFLPANTSTERLDILDDERRVTGFSIIGGEHRLTNYKSVTTVHRFEKENRIWTVVLESYVVDMPEGNSEDDTRMFADTVVKLNLQKLATVAEAMARNSGDGSGSQVT
B2: L87E: PYR1 mutant (protein, UniProt O49686 1-191, looked up, variant L87E)
Abscisic acid receptor PYR1: B1 Abscisic acid receptor PYR1 with F86G, L87E
B3: P88C: PYR1 mutant (protein, UniProt O49686 1-191, looked up, variant P88C)
Abscisic acid receptor PYR1: B1 Abscisic acid receptor PYR1 with F86G, P88C
B4: A89M: PYR1 mutant (protein, UniProt O49686 1-191, looked up, variant A89M)
Abscisic acid receptor PYR1: B1 Abscisic acid receptor PYR1 with F86G, A89M
B5: L87G: PYR1 mutant (protein, UniProt O49686 1-191, looked up, variant L87G)
Abscisic acid receptor PYR1: B1 Abscisic acid receptor PYR1 with F86G, L87G
B6: P88Y: PYR1 mutant (protein, UniProt O49686 1-191, looked up, variant P88Y)
Abscisic acid receptor PYR1: B1 Abscisic acid receptor PYR1 with F86G, P88Y
B7: G86K: PYR1 mutant (protein, UniProt O49686 1-191, looked up, variant G86K)
Abscisic acid receptor PYR1: B1 Abscisic acid receptor PYR1 with F86K
B8: P88N: PYR1 mutant (protein, UniProt O49686 1-191, looked up, variant P88N)
Abscisic acid receptor PYR1: B1 Abscisic acid receptor PYR1 with F86G, P88N
B9: L87N: PYR1 mutant (protein, UniProt O49686 1-191, looked up, variant L87N)
Abscisic acid receptor PYR1: B1 Abscisic acid receptor PYR1 with F86G, L87N
B10: L87Y: PYR1 mutant (protein, UniProt O49686 1-191, looked up, variant L87Y)
Abscisic acid receptor PYR1: B1 Abscisic acid receptor PYR1 with F86G, L87Y
B11: P88D: PYR1 mutant (protein, UniProt O49686 1-191, looked up, variant P88D)
Abscisic acid receptor PYR1: B1 Abscisic acid receptor PYR1 with F86G, P88D
B12: P88E: PYR1 mutant (protein, UniProt O49686 1-191, looked up, variant P88E)
Abscisic acid receptor PYR1: B1 Abscisic acid receptor PYR1 with F86G, P88E
B13: P88M: PYR1 mutant (protein, UniProt O49686 1-191, looked up, variant P88M)
Abscisic acid receptor PYR1: B1 Abscisic acid receptor PYR1 with F86G, P88M
B14: A89L: PYR1 mutant (protein, UniProt O49686 1-191, looked up, variant A89L)
Abscisic acid receptor PYR1: B1 Abscisic acid receptor PYR1 with F86G, A89L
B15: P88H: PYR1 mutant (protein, UniProt O49686 1-191, looked up, variant P88H)
Abscisic acid receptor PYR1: B1 Abscisic acid receptor PYR1 with F86G, P88H
B16: G86I: PYR1 mutant (protein, UniProt O49686 1-191, looked up, variant G86I)
Abscisic acid receptor PYR1: B1 Abscisic acid receptor PYR1 with F86I
B17: P88S: PYR1 mutant (protein, UniProt O49686 1-191, looked up, variant P88S)
Abscisic acid receptor PYR1: B1 Abscisic acid receptor PYR1 with F86G, P88S
B18: L87Q: PYR1 mutant (protein, UniProt O49686 1-191, looked up, variant L87Q)
Abscisic acid receptor PYR1: B1 Abscisic acid receptor PYR1 with F86G, L87Q
B19: L87H: PYR1 mutant (protein, UniProt O49686 1-191, looked up, variant L87H)
Abscisic acid receptor PYR1: B1 Abscisic acid receptor PYR1 with F86G, L87H
B20: L87S: PYR1 mutant (protein, UniProt O49686 1-191, looked up, variant L87S)
Abscisic acid receptor PYR1: B1 Abscisic acid receptor PYR1 with F86G, L87S
B21: L87D: PYR1 mutant (protein, UniProt O49686 1-191, looked up, variant L87D)
Abscisic acid receptor PYR1: B1 Abscisic acid receptor PYR1 with F86G, L87D
B22: P88R: PYR1 mutant (protein, UniProt O49686 1-191, looked up, variant P88R)
Abscisic acid receptor PYR1: B1 Abscisic acid receptor PYR1 with F86G, P88R
B23: P88W: PYR1 mutant (protein, UniProt O49686 1-191, looked up, variant P88W)
Abscisic acid receptor PYR1: B1 Abscisic acid receptor PYR1 with F86G, P88W
B24: L87K: PYR1 mutant (protein, UniProt O49686 1-191, looked up, variant L87K)
Abscisic acid receptor PYR1: B1 Abscisic acid receptor PYR1 with F86G, L87K
B25: L87R: PYR1 mutant (protein, UniProt O49686 1-191, looked up, variant L87R)
Abscisic acid receptor PYR1: B1 Abscisic acid receptor PYR1 with F86G, L87R
B26: P88F: PYR1 mutant (protein, UniProt O49686 1-191, looked up, variant P88F)
Abscisic acid receptor PYR1: B1 Abscisic acid receptor PYR1 with F86G, P88F
B27: P88K: PYR1 mutant (protein, UniProt O49686 1-191, looked up, variant P88K)
Abscisic acid receptor PYR1: B1 Abscisic acid receptor PYR1 with F86G, P88K
B28: G86H: PYR1 mutant (protein, UniProt O49686 1-191, looked up, variant G86H)
Abscisic acid receptor PYR1: B1 Abscisic acid receptor PYR1 with F86H
B29: P88Q: PYR1 mutant (protein, UniProt O49686 1-191, looked up, variant P88Q)
Abscisic acid receptor PYR1: B1 Abscisic acid receptor PYR1 with F86G, P88Q
B30: L87A: PYR1 mutant (protein, UniProt O49686 1-191, looked up, variant L87A)
Abscisic acid receptor PYR1: B1 Abscisic acid receptor PYR1 with F86G, L87A
B31: P88L: PYR1 mutant (protein, UniProt O49686 1-191, looked up, variant P88L)
Abscisic acid receptor PYR1: B1 Abscisic acid receptor PYR1 with F86G, P88L
B32: P88I: PYR1 mutant (protein, UniProt O49686 1-191, looked up, variant P88I)
Abscisic acid receptor PYR1: B1 Abscisic acid receptor PYR1 with F86G, P88I
B33: L87C: PYR1 mutant (protein, UniProt O49686 1-191, looked up, variant L87C)
Abscisic acid receptor PYR1: B1 Abscisic acid receptor PYR1 with F86G, L87C
B34: P88T: PYR1 mutant (protein, UniProt O49686 1-191, looked up, variant P88T)
Abscisic acid receptor PYR1: B1 Abscisic acid receptor PYR1 with F86G, P88T
B35: P88G: PYR1 mutant (protein, UniProt O49686 1-191, looked up, variant P88G)
Abscisic acid receptor PYR1: B1 Abscisic acid receptor PYR1 with F86G, P88G
B36: L87W: PYR1 mutant (protein, UniProt O49686 1-191, looked up, variant L87W)
Abscisic acid receptor PYR1: B1 Abscisic acid receptor PYR1 with F86G, L87W
B37: P88V: PYR1 mutant (protein, UniProt O49686 1-191, looked up, variant P88V)
Abscisic acid receptor PYR1: B1 Abscisic acid receptor PYR1 with F86G, P88V
B38: L87T: PYR1 mutant (protein, UniProt O49686 1-191, looked up, variant L87T)
Abscisic acid receptor PYR1: B1 Abscisic acid receptor PYR1 with F86G, L87T

Tested on: HAB1
Test: Yeast two hybrid of pBD-PYR1 site saturation mutants with pACT-HAB1 on 10 μM ABA, β-galactosidase staining
Assay type: cell-based, Arabidopsis
Design: key: x: Mutations in PYR1 that disrupt ABA-induced binding to PYR1 to HAB1
Conditions: S. cerevisiae Y190, 10 μM ABA; dead = lack of visible staining in comparison to wild type control
Source text: To systematically identify mutations in PYR1 that disrupt its binding to HAB1, we utilized a collection of saturating mutations that contain all possible single amino acid substitutions in 24 conserved interface residues involved in binding HAB1, which was previously constructed for the purpose of engineering constitutively active ABA receptor variants (Mosquna et al., 2011). The interface residues previously mutagenized in this collection are the following: H60, F61, I62, K63, I84, S85, G86, L87, P88, A89, H115, R116, L117, P148, G150, N151, D154, D155, T156, M158, F159, T162, L166, K170. This set was made by mutagenizing a pBD-PYR1 template that encodes a GAL4-DNA binding domain fusion to PYR1, which can be used to assess receptor-HAB1 binding in S. cerevisiae strains co-transformed with pACT-HAB1, which expresses a GAL4 activation domain fusion to HAB1. Mutant pBD-PYR1 clones from the collection are maintained in S. cerevisiae strain Y190 co-transformed with pACT-HAB1. The test strains were spotted onto agar plates containing synthetic dextrose dropout media lacking leucine and tryptophan [SD (-Leu, -Trp)] medium supplemented with 10 μM ABA. After incubating the test plates at 30° C. for two days, colonies were chloroform lysed and stained to reveal […] expression levels and “dead” mutants were defined by lack of visible staining in comparison to a wild type control. This effort defined 237 mutations that disrupt ABA-induced binding of PYR1 to HAB1 (Table 1). Premade yeast drop out supplements (Clontech) were utilized in this and other examples for media preparation, amino acids and other standard chemicals were purchased from Sigma-Aldrich (USA). The naturally occurring (+)-ABA isomer was used in all experiments and purchased from Biosynth Ag (Switzerland).

Row | Molecule | Mutations in PYR1 that disrupt ABA-induced binding to PYR1 to HAB1
1 | B1 | x
2 | B2 | x
3 | B3 | x
4 | B4 | x
5 | B5 | x
6 | B6 | x
7 | B7 | x
8 | B8 | x
9 | B9 | x
10 | B10 | x
11 | B11 | x
12 | B12 | x
13 | B13 | x
14 | B14 | x
15 | B15 | x
16 | B16 | x
17 | B17 | x
18 | B18 | x
19 | B19 | x

Row | Molecule | Mutations in PYR1 that disrupt ABA-induced binding to PYR1 to HAB1
20 | B20 | x
21 | B21 | x
22 | B22 | x
23 | B23 | x
24 | B24 | x
25 | B25 | x
26 | B26 | x
27 | B27 | x
28 | B28 | x
29 | B29 | x
30 | B30 | x
31 | B31 | x
32 | B32 | x
33 | B33 | x
34 | B34 | x
35 | B35 | x
36 | B36 | x
37 | B37 | x
38 | B38 | x
